B1: STAM-binding protein (Homo sapiens), O95630 (parent)
chain: MSDHGDVSLPPEDRVRALSQLGSAVEVNEDIPPRRYFRSGVEIIRMASIYSEEGNIEHAFILYNKYITLFIEKLPKHRDYKSAVIPEKKDTVKKLKEIAFPKAEELKAELLKRYTKEYTEYNEEKKKEAEELARNMAIQQELEKEKQRVAQQKQQQLEQEQFHAFEEMIRNQELEKERLKIVQEFGKVDPGLGGPLVPDLEKPSLDVFPTLTVSSIQPSDCHTTVRPAKPPVVDRSLKPGALSNSESIPTIDGLRHVVVPGRLCPQFLQLASANTARGVETCGILCGKLMRNEFTITHVLIPKQSAGSDYCNTENEEELFLIQDQQGLITLGWIHTHPTQTAFLSSVDLHTHCSYQMMLPESVAIVCSPKFQETGFFKLTDHGLEEISSCRQKGFHPHSKDPPLFCSCSHVTVVDRAVTITDLR
partner: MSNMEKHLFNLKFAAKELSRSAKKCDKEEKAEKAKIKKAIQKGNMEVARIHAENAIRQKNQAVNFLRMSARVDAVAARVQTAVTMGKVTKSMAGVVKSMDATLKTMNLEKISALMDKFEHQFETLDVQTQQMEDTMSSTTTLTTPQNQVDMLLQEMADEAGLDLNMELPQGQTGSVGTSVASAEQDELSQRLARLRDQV
B2: Hypoxanthine-guanine phosphoribosyltransferase (Homo sapiens), P00492 (parent)
chain: MATRSPGVVISDDEPGYDLDLFCIPNHYAEDLERVFIPHGLIMDRTERLARDVMKEMGGHHIVALCVLKGGYKFFADLLDYIKALNRNSDRSIPMTVDFIRLKSYCNDQSTGDIKVIGGDDLSTLTGKNVLIVEDIIDTGKTMQTLLSLVRQYNPKMVKVASLLVKRTPRSVGYKPDFVGFEIPDKFVVGYALDYNEYFRDLNHVCVISETGKAKYKA
B3: Cancer/testis antigen 2 (Homo sapiens), O75638 (parent)
chain: MQAEGRGTGGSTGDADGPGGPGIPDGPGGNAGGPGEAGATGGRGPRGAGAARASGPRGGAPRGPHGGAASAQDGRCPCGARRPDSRLLELHITMPFSSPMEAELVRRILSRDAAPLPRPGAVLKDFTVSGNLLFMSVRDQDREGAGRMRVVGWGLGSASPEGQKARDLRTPKHKVSEQRPGTPGPPPPEGAQGDGCRGVAFNVMFSAPHI

One assay covers variants of B1. As to conditions: with chm1b_human CHMP1B.
MSDHGDVSLPPEDRVRALSQLGSAVEVNEDIPPRRYFRSGVEIIRMASIYSEEGNIEHAFILYNKYITLFIEKLPKHRDYKSAVIPEKKDTVKKLKEIAFPKAEELKAELLKRYTKEYTEYNEEKKKEAEELARNMAIQQELEKEKQRVAQQKQQQLEQEQFHAFEEMIRNQELEKERLKIVQEFGKVDPGLGGPLVPDLEKPSLDVFPTLTVSSIQPSDCHTTVRPAKPPVVDRSLKPGALSNSESIPTIDGLHHVVVPGRLCPQFLQLASANTARGVETCGILCGKLMRNEFTITHVLIPKQSAGSDYCNTENEEELFLIQDQQGLITLGWIHTHPTQTAFLSSVDLHTHCSYQMMLPESVAIVCSPKFQETGFFKLTDHGLEEISSCRQKGFHPHSKDPPLFCSCSHVTVVDRAVTITDLR [R255H]: the “effect of a mutation on the interaction” value was “with no effect”.
Same read-out and setting: under MSDHGDVSLPPEDRVRALSQLGSAVEVNEDIPPRRYFRSGVEIIRMASIYSEEGNIEHAFILYNKYITLFIEKLPKHRDYKSAVIPEKKDTVKKLKEIAFPKAEELKAELLKRYTKEYTEYNEEKKKEAEELARNMAIQQELEKEKQRVAQQKQHQLEQEQFHAFEEMIRNQELEKERLKIVQEFGKVDPGLGGPLVPDLEKPSLDVFPTLTVSSIQPSDCHTTVRPAKPPVVDRSLKPGALSNSESIPTIDGLRHVVVPGRLCPQFLQLASANTARGVETCGILCGKLMRNEFTITHVLIPKQSAGSDYCNTENEEELFLIQDQQGLITLGWIHTHPTQTAFLSSVDLHTHCSYQMMLPESVAIVCSPKFQETGFFKLTDHGLEEISSCRQKGFHPHSKDPPLFCSCSHVTVVDRAVTITDLR [Q155H] stands “with no effect”.

The variants in another assay derive from B2. Particulars: with sdcb1_human SDCBP.
On to MATRSPGVVISDDEPGYDLDLFCIPNHYAEDLERVFIPHGLIMDRTERLARDVMKEMGGHHIVALCVLKGGYKFFADLLDYIKALNRNSDRSIPMTVDFIRLKSYCNDQSTGDIKVIGGDDLSTLTGKNVLIVEDIIDTGKTMQTLLSLVRQYNPKMVKVASLLVKRTPRSVGYKPDFVGFEIPDKFVVGYALDYNEYFRDLNHVYVISETGKAKYKA [C206Y], for which the “effect of a mutation on the interaction” value is listed as “disrupting interaction strength”.
On the same count and under the same terms, then MATRSPGVVISDDEPGYDLDLFCIPNHYAEDLERVFISHGLIMDRTERLARDVMKEMGGHHIVALCVLKGGYKFFADLLDYIKALNRNSDRSIPMTVDFIRLKSYCNDQSTGDIKVIGGDDLSTLTGKNVLIVEDIIDTGKTMQTLLSLVRQYNPKMVKVASLLVKRTPRSVGYKPDFVGFEIPDKFVVGYALDYNEYFRDLNHVCVISETGKAKYKA [P38S], with “disrupting interaction strength”.

In a further assay the parent is B2. As to conditions: with iscu_human ISCU.
MATRSPGVVISDDEPGYDLDLFCIPNHYAEDLERVFIPHGLIMDRTERLARDVMKEMGGHHIVALCVLKGGYKFFADLLDYIKALNRNSDRSIPMTVDFIRLKSYCNDQSTGDIKVIGGDDLSTLTGKNVLIVEDIIDTGKTMQTLLSLVRQYNPKMVKVASLLVKRTPRSVGYKPDFVGFEIPDKFVVGYALDYNEYFRDLNHVYVISETGKAKYKA [C206Y]: the “effect of a mutation on the interaction” value is “disrupting interaction strength”.
The same measure, in the same setting: under MATRSPGVVISDDEPGYDLDLFCIPNHYAEDLERVFISHGLIMDRTERLARDVMKEMGGHHIVALCVLKGGYKFFADLLDYIKALNRNSDRSIPMTVDFIRLKSYCNDQSTGDIKVIGGDDLSTLTGKNVLIVEDIIDTGKTMQTLLSLVRQYNPKMVKVASLLVKRTPRSVGYKPDFVGFEIPDKFVVGYALDYNEYFRDLNHVCVISETGKAKYKA [P38S] stands “disrupting interaction strength”.

Variants of B2 are the subject of the next assay. As to conditions: with prdc1_human PRTFDC1, Q9NRG1.
prdc1_human PRTFDC1, Q9NRG1, sequence (Q9NRG1 whole entry): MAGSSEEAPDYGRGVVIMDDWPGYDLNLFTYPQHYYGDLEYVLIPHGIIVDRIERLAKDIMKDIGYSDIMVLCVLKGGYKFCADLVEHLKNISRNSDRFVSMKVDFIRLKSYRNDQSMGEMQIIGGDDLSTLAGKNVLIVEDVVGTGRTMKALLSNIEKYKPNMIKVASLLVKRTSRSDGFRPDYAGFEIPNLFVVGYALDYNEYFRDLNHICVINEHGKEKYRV
In the case of MATRSPGVVISDDEPGYDLDLFCIPNHYAEDLERVFIPHGLIMDRTERLARDVMKEMGGHHIVALCVLKGGYKFFADLLDYIKALNRNSDRSIPMTVDFIRLKSYCNDQSTGDIKVIGGDDLSTLTGKNVLIVEDIIDTGKTMQTLLSLVRQYNPKMVKVASLLVKRTPRSVGYKPDFVGFEIPDKFVVGYALDYNEYFRDLNHVYVISETGKAKYKA [C206Y], the “effect of a mutation on the interaction” value is “with no effect”.
On the same count and under the same terms, under MATRSPGVVISDDEPGYDLDLFCIPNHYAEDLERVFISHGLIMDRTERLARDVMKEMGGHHIVALCVLKGGYKFFADLLDYIKALNRNSDRSIPMTVDFIRLKSYCNDQSTGDIKVIGGDDLSTLTGKNVLIVEDIIDTGKTMQTLLSLVRQYNPKMVKVASLLVKRTPRSVGYKPDFVGFEIPDKFVVGYALDYNEYFRDLNHVCVISETGKAKYKA [P38S] stands “with no effect”.

Variants of B2 are the subject of the next assay. Particulars: with ntaq1_human NTAQ1, Q96HA8.
Turning to MATRSPGVVISDDEPGYDLDLFCIPNHYAEDLERVFIPHGLIMDRTERLARDVMKEMGGHHIVALCVLKGGYKFFADLLDYIKALNRNSDRSIPMTVDFIRLKSYCNDQSTGDIKVIGGDDLSTLTGKNVLIVEDIIDTGKTMQTLLSLVRQYNPKMVKVASLLVKRTPRSVGYKPDFVGFEIPDKFVVGYALDYNEYFRDLNHVYVISETGKAKYKA [C206Y], the “effect of a mutation on the interaction” value is “disrupting interaction strength”.
Still for that read-out and setting: then MATRSPGVVISDDEPGYDLDLFCIPNHYAEDLERVFISHGLIMDRTERLARDVMKEMGGHHIVALCVLKGGYKFFADLLDYIKALNRNSDRSIPMTVDFIRLKSYCNDQSTGDIKVIGGDDLSTLTGKNVLIVEDIIDTGKTMQTLLSLVRQYNPKMVKVASLLVKRTPRSVGYKPDFVGFEIPDKFVVGYALDYNEYFRDLNHVCVISETGKAKYKA [P38S], with “disrupting interaction strength”.

The next assay covers variants of B3. As to conditions: with ubql1_human UBQLN1, Q9UMX0.
ubql1_human UBQLN1, Q9UMX0, sequence (Q9UMX0 whole entry): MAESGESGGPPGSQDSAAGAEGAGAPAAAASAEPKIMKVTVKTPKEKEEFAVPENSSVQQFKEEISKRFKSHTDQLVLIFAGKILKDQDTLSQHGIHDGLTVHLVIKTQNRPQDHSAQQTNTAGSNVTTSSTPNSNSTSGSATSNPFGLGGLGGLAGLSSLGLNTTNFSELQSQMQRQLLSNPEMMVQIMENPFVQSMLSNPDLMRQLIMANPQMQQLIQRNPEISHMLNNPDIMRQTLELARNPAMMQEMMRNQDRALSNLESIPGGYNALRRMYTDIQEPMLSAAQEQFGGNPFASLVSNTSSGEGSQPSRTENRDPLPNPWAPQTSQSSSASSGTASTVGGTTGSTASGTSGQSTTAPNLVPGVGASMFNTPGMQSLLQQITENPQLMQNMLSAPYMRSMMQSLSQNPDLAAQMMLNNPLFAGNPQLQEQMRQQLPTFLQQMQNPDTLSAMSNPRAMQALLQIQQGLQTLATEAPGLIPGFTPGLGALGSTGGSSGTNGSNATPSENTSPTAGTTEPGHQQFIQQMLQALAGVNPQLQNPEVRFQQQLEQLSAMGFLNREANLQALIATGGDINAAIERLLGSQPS
As for MQAEGRGTGGSTGDADGPGGPGIPDGPGGNAGGPGEAGATGGRGPRGAGAARASGPRGGAPRGPHGGAASAQDGRCPCGTRRPDSRLLELHITMPFSSPMEAELVRRILSRDAAPLPRPGAVLKDFTVSGNLLFMSVRDQDREGAGRMRVVGWGLGSASPEGQKARDLRTPKHKVSEQRPGTPGPPPPEGAQGDGCRGVAFNVMFSAPHI [A80T], the “effect of a mutation on the interaction” value is “with no effect”.

Variants of B3 are the subject of another assay. Particulars: with trip6_human TRIP6, Q15654.
trip6_human TRIP6, Q15654, sequence (Q15654 whole entry): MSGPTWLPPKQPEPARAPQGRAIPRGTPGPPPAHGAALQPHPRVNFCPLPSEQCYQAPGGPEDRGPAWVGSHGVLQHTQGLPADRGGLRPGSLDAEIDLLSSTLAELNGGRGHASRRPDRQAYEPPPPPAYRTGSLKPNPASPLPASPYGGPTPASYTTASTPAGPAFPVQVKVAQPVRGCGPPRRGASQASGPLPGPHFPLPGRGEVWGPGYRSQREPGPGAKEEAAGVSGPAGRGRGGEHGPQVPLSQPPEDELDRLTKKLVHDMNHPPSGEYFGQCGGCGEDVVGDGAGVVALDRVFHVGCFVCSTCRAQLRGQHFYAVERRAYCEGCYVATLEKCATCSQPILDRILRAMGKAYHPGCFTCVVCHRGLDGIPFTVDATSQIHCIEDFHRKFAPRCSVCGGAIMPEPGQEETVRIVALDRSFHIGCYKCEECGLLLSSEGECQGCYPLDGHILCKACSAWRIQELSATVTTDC
In the case of MQAEGRGTGGSTGDADGPGGPGIPDGPGGNAGGPGEAGATGGRGPRGAGAARASGPRGGAPRGPHGGAASAQDGRCPCGTRRPDSRLLELHITMPFSSPMEAELVRRILSRDAAPLPRPGAVLKDFTVSGNLLFMSVRDQDREGAGRMRVVGWGLGSASPEGQKARDLRTPKHKVSEQRPGTPGPPPPEGAQGDGCRGVAFNVMFSAPHI [A80T], the “effect of a mutation on the interaction” value is reported as “with no effect”.
